Data reported in US20140356358A1 (Amgen, published 2014).
Changes are numbered by the printed parent chain. Names may count otherwise.

B1: variant Fc-fragment Fc-5-92 (other)
chain: EPKSCDKTHTCPPCPAPELLGGPSVFLFPPKPKDTLMISRTPEVTCVVVDVSHEDPEVKFNWYVDGVEVHNAKTKPREEQYNSTYRVVSVLTVLHQDWLNGKEYKCKVSNKALPAPIEKTISKAKGQPREPQVYTLPPSRDELTKNQVSLTCLVKGFYPSDIAVEWESNGGCDGRTKYCGGGQPENNYKTTPPVLDSDGSFFLYSKLTVDKSRWQQGNVFSCSVMHEALHNHYTQKSLSLSPGK
notes: soluble elsewhere
B2: variant Fc-fragment Fc-5-112 (other)
chain: B1 chain with D173A, G174L, R175Y, T176P, K177T, Y178N
notes: soluble elsewhere
B3: variant Fc-fragment Fc-5-69 (other)
chain: B1 chain with D173W, G174P, R175L, T176Q, K177D
notes: soluble elsewhere
B4: variant Fc-fragment Fc-5-113 (other)
chain: B1 chain with D173Q, R175M, T176W, K177T, Y178W
notes: soluble elsewhere
B5: variant Fc-fragment Fc-5-64 (other)
chain: B1 chain with D173H, G174S, R175F, T176K, K177H, Y178F
notes: soluble elsewhere
B6: variant Fc-fragment Fc-5-96 (other)
chain: B1 chain with D173M, G174Q, R175M, T176N, Y178W
notes: soluble elsewhere
B7: variant Fc-fragment Fc-5-104 (other)
chain: B1 chain with D173G, G174H, R175E, T176Y, K177M, Y178W
notes: soluble elsewhere
B8: variant Fc-fragment Fc-5-57 (other)
chain: B1 chain with D173G, G174K, R175H, T176W, K177H, Y178Q
notes: soluble elsewhere
B9: variant Fc-fragment Fc-5-51 (other)
chain: B1 chain with D173H, G174L, R175P, T176F, K177A, Y178V
notes: soluble elsewhere
B10: variant Fc-fragment Fc-5-73 (other)
chain: EPKSCDKTHTCPPCPAPELLGGPSVFLFPPKPKDTLMISRTPEVTCVVVDVSHEDPEVKFNWYVDGVEVHNAKTKPREEQYNSTYRVVSVLTVLHQDWLNGKEYKCKVSNKALPAPIEKTISKAKGQPREPQVYTLPPSRDELTKNQVSLTCLVKGFYPSDIAVEWESNGGCAQQWHHEYCGGGQPENNYKTTPPVLDSDGSFFLYSKLTVDKSRWQQGNVFSCSVMHEALHNHYTQKSLSLSPGK
notes: soluble elsewhere
B11: variant Fc-fragment Fc-5-95 (other)
chain: B1 chain with G174R, R175P, T176V, K177W, Y178F
notes: library L5 isolate
B12: variant Fc-fragment Fc-5-60 (other)
chain: B1 chain with D173Q, G174K, R175G, T176W, K177V, Y178F
notes: library L5 isolate
B13: variant Fc-fragment Fc-5-55 (other)
chain: B1 chain with D173M, G174Q, R175V, T176W, K177G, Y178S
notes: library L5 isolate
B14: variant Fc-fragment Fc-5-99 (other)
chain: B1 chain with D173Y, G174I, R175T, T176Q, Y178L
notes: library L5 isolate
B15: variant Fc-fragment Fc-5-85 (other)
chain: B1 chain with D173I, R175P, T176F, K177W, Y178W
notes: library L5 isolate
B16: variant Fc-fragment Fc-5-110 (other)
chain: B1 chain with D173W, R175S, T176R, K177S, Y178Q
notes: library L5 isolate
B17: variant Fc-fragment Fc-5-97 (other)
chain: B1 chain with D173N, G174M, R175L, T176W, K177G, Y178S
notes: library L5 isolate
B18: variant Fc-fragment Fc-5-70 (other)
chain: B1 chain with D173M, G174V, R175P, T176F, K177S, Y178M
notes: library L5 isolate
B19: variant Fc-fragment Fc-5-79 (other)
chain: B1 chain with D173V, G174N, R175T, T176W, K177W, Y178S
notes: library L5 isolate
B20: variant Fc-fragment Fc-5-106-M4Q (other)
chain: B1 chain with D173V, G174F, R175N, T176Q, K177F, Y178N
B21: variant Fc-fragment Fc-5-69-W1F (other)
chain: B1 chain with D173F, G174P, R175L, T176Q, K177D
notes: also called Fc-5-69-WIF
B22: variant Fc-fragment Fc-5-106-M4H (other)
chain: B1 chain with D173V, G174F, R175N, T176H, K177F, Y178N
B23: variant Fc-fragment Fc-5-106-M4G (other)
chain: B1 chain with D173V, G174F, R175N, T176G, K177F, Y178N
B24: variant Fc-fragment Fc-5-106-M4N (other)
chain: B1 chain with D173V, G174F, R175N, T176N, K177F, Y178N
B25: variant Fc-fragment Fc-5-106-M4A (other)
chain: B1 chain with D173V, G174F, R175N, T176A, K177F, Y178N
B26: variant Fc-fragment Fc-5-106-M4S (other)
chain: B1 chain with D173V, G174F, R175N, T176S, K177F, Y178N
B27: variant Fc-fragment Fc-5-69-W1Y (other)
chain: B1 chain with D173Y, G174P, R175L, T176Q, K177D
notes: also called Fc-5-69-WIY
B28: variant Fc-fragment 5-1-4 (other)
chain: EPKSCDKTHTCPPCPAPELLGGPSVFLFPPKPKDTLMISRTPEVTCVVVDVSHEDPEVKFNWYVDGVEVHNAKTKPREEQYNSTYRVVSVLTVLHQDWLNGKEYKCKVSNKALPAPIEKTISKAKGQPREPQVYTLPPSRDELTKNQVSLTCLVKGFYPSDIAVEWESNGQGGCGMPIEFCGGPENNYKTTPPVLDSDGSFFLYSKLTVDKSRWQQGNVFSCSVMHEALHNHYTQKSLSLSPGK
B29: variant Fc-fragment 5-1-2 (other)
chain: EPKSCDKTHTCPPCPAPELLGGPSVFLFPPKPKDTLMISRTPEVTCVVVDVSHEDPEVKFNWYVDGVEVHNAKTKPREEQYNSTYRVVSVLTVLHQDWLNGKEYKCKVSNKALPAPIEKTISKAKGQPREPQVYTLPPSRDELTKNQVSLTCLVKGFYPSDIAVEWESGGCGMPIEFCGGNGQPENNYKTTPPVLDSDGSFFLYSKLTVDKSRWQQGNVFSCSVMHEALHNHYTQKSLSLSPGK
B30: variant Fc-fragment 5-1-3 (other)
chain: B1 chain with C172G, D173C, R175M, T176P, K177I, Y178E, C179F, G180C

The binders below were run against T1, human neonatal Fc receptor (hFcRn) (human, UniProt P55899 24-290; P61769 21-119) (assay: phage ELISA pH 6;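 further: higher score means stronger binding and above about 3 to 5 exceeds background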).
T1 construct: Biotinylated in the ELISA, Octet and yeast assays; also called human FcRn; huFcRn

ELISA score	Binder
64.1	B1
62.7	B2
76.7	B3
56.1	B4
57.2	B5
72.7	B6
82.4	B7
57.8	B8
82.5	B9
54.5	B10

What follows are binders tested against T1, human neonatal Fc receptor (hFcRn) (assay: phage ELISA pH 7.4;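 further: higher score means stronger binding and above about 3 to 5 exceeds background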).

ELISA score	Binder
0.5	B1
0.4	B2
0.6	B3
0.7	B4
0.4	B5
0.5	B6
0.3	B8
0.4	B9
0.3	B10

The binders below were run against T1, human neonatal Fc receptor (hFcRn) (assay: SPR competition pH 5.5).
Description: (§1) Binding of variant Fc-fragments to human and cynomolgus monkey FcRn was tested using a BIAcore® T100 analysis system (GE Healthcare Bio-Sciences AB Private Limited Liability Company, Uppsala, Sweden) at both pH 5.5 and pH 7.4. The test consisted of incubating various concentrations of the variant Fc-fragments or control Fc-fragments with a fixed amount of human or cynomolgus monkey FcRn under binding conditions and subsequently measuring the amount of free, unbound FcRn in these mixtures by binding to a surface (in a flow cell of a CM5 (Biacore) chip) on which an Fc-fragment was immobilized. […] Thus, the amount of unbound FcRn in the mixture was quantitatively ascertained by surface plasmon resonance through use of the BIAcore® T100 analysis system. […] Initially, a group of 23 variant-Fc-fragments (Fc-5-1 being considered a control) identified in the experiments described above were tested for binding to human FcRn.
(§2) To obtain a reasonable signal for the different molecules and conditions tested, different assay conditions were used. For assays at pH 5.5, 10 nM of human or cynomolgus monkey FcRn was mixed with serial dilutions of the variant and control Fc-fragments being tested (which ranged from 0.1˜2,000 nM) and incubated for 1 hour at room temperature in 10 mM sodium acetate, pH 5.5, 150 mM NaCl, 0.005% P20, 0.1 mg/mL BSA. As positive controls, […] human and cynomolgus monkey FcRn were each incubated in the same solution, for the same time, and at the same temperature described immediately above, but without an added Fc-fragment.

EC50	Binder
75 nM	B1
42 nM	B11
46 nM	B2
67 nM	B12
49 nM	B13
20 nM	B4
210 nM	B5
15 nM	B14
18 nM	B15
76 nM	B6
250 nM	B16
15 nM	B7
25 nM	B17
180 nM	B8
26 nM	B18
16 nM	B9
53 nM	B19
190 nM	B10

These binders were tested against T2, cynomolgus monkey FcRn (cynomolgus monkey, UniProt Q8SPV9 24-297; Q8SPW0 21-119, limits assumed) (assay: SPR competition pH 5.5).
T2 construct: also called Cynomolgus FcRn
T2 sequence (Q8SPV9 24-297 limits assumed, chain 1 of 2): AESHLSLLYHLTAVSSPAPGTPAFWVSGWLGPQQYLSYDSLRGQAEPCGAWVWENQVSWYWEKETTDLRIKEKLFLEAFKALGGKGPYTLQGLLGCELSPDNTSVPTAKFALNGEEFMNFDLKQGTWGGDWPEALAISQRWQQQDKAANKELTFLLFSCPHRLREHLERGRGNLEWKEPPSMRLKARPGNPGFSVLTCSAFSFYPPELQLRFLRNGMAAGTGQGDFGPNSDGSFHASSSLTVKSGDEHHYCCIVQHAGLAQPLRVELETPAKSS
T2 sequence (Q8SPW0 21-119 limits assumed, chain 2 of 2): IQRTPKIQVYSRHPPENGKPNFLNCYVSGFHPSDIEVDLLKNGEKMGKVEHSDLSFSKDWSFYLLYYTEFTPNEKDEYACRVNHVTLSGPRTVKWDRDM
Description: as §1, §2

EC50	Binder
50 nM	B11
49 nM	B2
18 nM	B3
60 nM	B12
53 nM	B13
27 nM	B4
16 nM	B14
25 nM	B15
16 nM	B7
31 nM	B17
27 nM	B18
21 nM	B9
63 nM	B19

Molecular target: T1, human neonatal Fc receptor (hFcRn)
Assay: SPR competition pH 5.5
Remark: another data set of the same source

EC50	Binder
34 nM	B20
57 nM	B21
100 nM	B22
20 nM	B3
100 nM	B23
100 nM	B24
27 nM	B25
58 nM	B26
140 nM	B27

These binders were tested against T1, human neonatal Fc receptor (hFcRn) (assay: BLI (Octet), association pH 6, dissociation pH 7.4).
Text: To further characterize some of the variant Fc-fragments identified by the phage ELISA, binding of the variant Fc-fragments to FcRn at pH 6 and 7.4 was characterized for a subset of the identified variant Fc-fragments. DNA encoding selected variant Fc-fragment isolates, all from library L5, was introduced into a mammalian expression vector, which was used to transfect 293 6E cells using deacylated PEI essentially as described by Thomas et al. (Proc. Natl. Acad. Sci. 102(16): 5679-5684, 2005), the relevant portions of which are incorporated herein by reference. […] Concentrations were calculated using a standard curve created with a purified Fc fusion protein.
Biotinylated hFcRn at 100 nM was captured on streptavidin (SA) biosensors (ForteBio Inc., 18-5019) off-line at RT for 2 hours. Using these biotinylated hFcRn-coated SA biosensors in the Octet Red® system, association and dissociation of unlabeled proteins can be detected in real time via […] of light. […] Three association and dissociation conditions were set up: (1) association at pH 6 and dissociation at pH 6; (2) association at pH 6 and dissociation at pH 7.4; and (3) association at pH 7.4 and dissociation at pH 7.4. SA biosensors coated with biotinylated hFcRN were dipped into buffer at a specific pH for 1 min and then soaked in the samples containing variant Fc-fragments or controls at a specific pH for 5 min to allow binding to FcRn. The Fc biosensors were then soaked in buffer at a specific pH for 5 minutes more to allow the bound Fc-fragments to dissociate from FcRn. Detection of binding and dissociation of the Fc-fragments was possible through the use of bio-layer interferometry as implemented using the Octet Red® system, so that binding and dissociation were detected in real time.

binding result	Binder
binds	B28
binds	B29
binds	B30
